From patent US20250051471A1 (WILLIAM ROBERT ARATHOON LIVING TRUST DATED AUGUST 29 2016, published 2025)

Experiments:
human ABCB1 on cells [1] = target: T1, human ABCB1 on cells (human, UniProt P08183 1-1280); assay: flow cytometry, DX5 WT cells (carry both ABCB1 and CD47), MFI
T1 construct: whole, on cells; also called MDR1; Pgp

human ABCB1 on cells [2] = target: T1, human ABCB1 on cells; assay: receptor occupancy assay on A2780ADR cells, curve 'BiS-Direct Binding' (PE anti-human IgG Fc); the cells carry both antigens, the target is named after the receptor whose free signal falls in the same panel
Protocol: Receptor Occupancy (RO) is a measure of the binding of a biotherapeutic to its cellular target(s). Common detection reagents include the drug itself and one or more antibodies binding to the same epitope as the drug. In the present experiment, anti-ABCB1 and anti-CD47 antibodies binding the respective epitopes of the corresponding ABCB1xCD47 bispecific antibodies were used, using the A2780ADR (ovarian) drug resistant cell line. […] Antibodies were prepared by 1:3 serial dilutions in flow cytometry buffer starting from 200 μg/mL (2× final concentration). 50 μL of diluted antibodies were transferred to the cell mixture and the plates incubated at 4° C. for 30 minutes. […] Following two washes with flow cytometry buffer, cells were resuspended in 100 µL of flow cytometry buffer and separated in two samples. […] The two samples were incubated at 4° C. for 30 minutes. Following two washes with flow cytometry buffer, the cells from each sample were resuspended in flow cytometry buffer, plus DAPI, to gate out dead cells, and analyzed using an Attune NXT (ThermoFisher Scientific) flow cytometer.

human ABCB1 on cells [3] = target: T1, human ABCB1 on cells; assay: flow cytometry, DX5 CD47 knock-out cells ('DX5 KT14 KO'), MFI
human CD47 on cells [4] = target: T2, human CD47 on cells (human, UniProt Q08722 19-323); assay: flow cytometry, DX5 B1 KO (ABCB1 knock-out) cells, % positive cells
T2 construct: also called hCD47; CD47 antigen

human CD47 on cells [5] = target: T2, human CD47 on cells; assay: flow cytometry on human RBC, donor D836
Protocol: (§1) Antibody binding to human and cynomolgus RBC was assessed by flow cytometry. […] RBC were prepared by centrifugation of whole blood aliquots (0.5 mL) for 5 min at 500xg. Supernatant (plasma) was removed, and RBC washed 3 times in D-PBS+1 mM EDTA. After the final wash, the RBC were resuspended in D-PBS+1 mM EDTA to a final volume of 0.5 mL. Washed RBC were then diluted in flow cytometry buffer (D-PBS+2% FBS+0.05% sodium azide) to 2% and dispensed at 50 pL/well into 96-well plates. An equivalent volume (50 pL) of antibody serially diluted in flow cytometry buffer to 2× final was added to the RBC, and the mixture incubated for 1 hour at room temperature. […] After 20 minutes at room temperature RBC were washed twice, resuspended in flow cytometry buffer and analyzed using an Invitrogen™ Attune™ NXT flow cytometer. […] Left panel, RBC are gated (R1) based on forward and side scatter. Middle panel, a second gate (R2) is applied to eliminate any remaining doublets or aggregates. Right panel, fluorescence of the R2 gated cells is assessed and a final gate (R3) is set using unstained RBC. Cells falling in the R3 gate are defined as “positive” for binding and reported as the percent (of R2 gated cells) that fall in the R3 gate. The results are presented at percent positive which represents the percent of RBC in the R3 gate.

[6] = target: T3, cynomolgus CD47 on red blood cells (cynomolgus, UniProt A0A5F8AK49 19-323 (rhesus entry)); assay: flow cytometry on cynomolgus RBC, donor Cy746
T3 construct: whole, on cells; The assay target is the red blood cell; also called cynomolgus Red Blood Cells
Protocol: as §1

human CD47 on cells [7] = target: T2, human CD47 on cells; assay: flow cytometry on human RBC, donor D837
Protocol: as §1

[8] = target: T3, cynomolgus CD47 on red blood cells; assay: flow cytometry on cynomolgus RBC, donor Cy744
Protocol: as §1

[9] = target: T3, cynomolgus CD47 on red blood cells; assay: flow cytometry on cynomolgus RBC, donor Cy745
Protocol: as §1

human CD47 on cells [10] = target: T2, human CD47 on cells; assay: flow cytometry on human RBC, donor D834
Protocol: as §1

human CD47 on cells [11] = target: T2, human CD47 on cells; assay: flow cytometry on human RBC, donor D835
Protocol: as §1

[12] = target: T3, cynomolgus CD47 on red blood cells; assay: flow cytometry on cynomolgus RBC, donor Cy747
Protocol: as §1

human CD47 on cells [13] = target: T2, human CD47 on cells; assay: flow cytometry on red blood cells (sentence follows Table 9, human RBC)

Row | EC50 (read off the curve) (human ABCB1 on cells [1]) | EC50 (read off the curve) (human ABCB1 on cells [2]) | EC50 (read off the curve) (human ABCB1 on cells [3]) | binding result (human CD47 on cells [4]) | % Positive (human CD47 on cells [5]) | % Positive [6] | % Positive (human CD47 on cells [7]) | % Positive [8] | % Positive [9] | % Positive (human CD47 on cells [10]) | % Positive (human CD47 on cells [11]) | % Positive [12] | binding result (human CD47 on cells [13]) | Binder
1 | ~10 nM | ~200 nM | ~20 nM | binds |  |  |  |  |  |  |  |  |  | 15D3 hmz HIR2/KT14 KBR1/MRK16v4b (bispecific antibody, IgG1, Humanized ABCB1 x CD47 IgG1 bispecific with a common light chain; the kappa constant region comes from the general cloning description; not shown: human kappa constant light chain) heavy 1: EVQLVESGGVVVQPGGSLRLSCAASGFTFSRYTMSWVRQAPGKGLEWVATISSGGGNTYYPDSVKGRFTVSRDNSKNSLYLQMNSLRTEDTALYYCARYGAGDAWFAYWGQGTLVTVSSASTKGPSVFPLAPSSKSTSGGTAALGCLVKDYFPEPVTVSWNSGALTSGVHTFPAVLQSSGLYSLSSVVTVPSSSLGTQTYICNVNHKPSNTKVDKRVEPKSCDKTHTCPPCPAPELLGGPSVFLFPPKPKDTLMISRTPEVTCVVVDVSHEDPEVKFNWYVDGVEVHNAKTKPREEQYNSTYRVVSVLTVLHQDWLNGKEYKCKVSNKALPAPIEKTISKAKGQPREPQVCTLPPSREEMTKNQVSLSCAVKGFYPSDIAVEWESNGQPENNYKTTPPVLDSDGSFVLVSKLTVDKSRWQQGNVFSCSVMHEALHNHYTQKSLSLSPG heavy 2: not shown light: DIVMTQTPLSSPVTLGQPASISCRSSQSIVHSTGNTYLEWYQQKPGQPPRLLIYKISNRFSGVPDRFSGSGSGTDFTLKISRVEAEDVGVYYCFQASHFPRTFGQGTKLEIK
2 |  |  |  |  | 0.2% | 15.1% | 0.4% | 0.7% | 2.2% | 0.7% | 0.4% | 26.5% | no binding | 15D3VHhuIgG1DD/KT14KK/B1.89v1.huL1(KV2)hmz (bispecific antibody, also called KB1-1421; 15D3VHhuIgG1DD/KT14KK/B1.89v1.huL1(KV2)hmzLC) heavy 1: not shown heavy 2: not shown light: DIVMTQSPLSLPVTPGEPASISCRSSQTIVHSNGNTYLEWYLQKPGQSPQLLIYKVSKRFSGVPDRFSGSGSGTDFTLKISRVEAEDVGVYYCFQASHFPRTFGQGTKLEIKRTVAAPSVFIFPPSDEQLKSGTASVVCLLNNFYPREAKVQWKVDNALQSGNSQESVTEQDSKDSTYSLSSTLTLSKADYEKHKVYACEVTHQGLSSPVTKSFNRGEC
